Source: patent US20120264921A1

Target: hepatitis B virus surface antigen (HBsAg) (Hepatitis B virus)
Assay: competitive ELISA: plate-coated HBsAg, soluble HBsAg as competitor, purified IgG

B1: human antibody HB48-59 (antibody, V domains shown)
VH: QVQLVQSGGEVKKPGALMKVSCKASGYIFTSYGISWVRQAPGQGLEWIGWINTYSGHTNYARKFRGRVTMTWDTSTSTAYMELSSLRSDDTAVYYCARVPTWGIDYWGQGTLVTVSS
VL: DIVMTQTPLSLPVTPGEPASISCRSSQSLLHSNGYNYLDWYLQKPGQSPQLLIYLGSKRASGVPDRFSGSGSGTDFTLQISRVEAEDVGVYYCMQSTQFPPYTFGQGTKLEIKR
  fold lower affinity than HB48-35: 1.3 fold

B2: human antibody HB48-33 (antibody, V domains shown)
VH: B1 VH
VL: QAGLTQPPSVSVAPGKTARITCGGDNIGRKSVHWYQQKTGQAPVLVVYEDNKRPSGIPERFSGSNSGNTATLTISGTQAMDEADYYCQAWDSSTVVFGGGTKLTVLG
  fold lower affinity than HB48-35: 4 fold
